Data: PMC4579057 (Journal of molecular biology, 2015)

Target: the molecule itself
Experiment: SEC

B1: APOBEC3B carboxy-terminal domain 193-CTD (Met-193 to the carboxy-terminal end) (domain or fragment)
chain: not shown
stoichiometry N: 2
